Measured values as given in patent US20120244144A1 (University of Texas, published 2012).
Numbering of substitutions follows the chain as printed.

Tests used:
PTx-S1-220 Y8A = target: T1, PTx-S1-220 Y8A (Bordetella pertussis strain Tohama I, UniProt P04977 36-255, Y8A); assay: Western blot (text: 1B7 was unable to bind Y8A)
T1 sequence: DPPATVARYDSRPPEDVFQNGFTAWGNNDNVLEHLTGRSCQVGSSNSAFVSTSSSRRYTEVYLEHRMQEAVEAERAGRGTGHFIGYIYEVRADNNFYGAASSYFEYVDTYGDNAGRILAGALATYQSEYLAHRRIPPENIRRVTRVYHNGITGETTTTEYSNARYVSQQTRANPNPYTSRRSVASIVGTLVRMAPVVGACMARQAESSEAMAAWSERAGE

[1] = target: T2, PTx-S1-220, truncated recombinant S1 subunit (residues 1-220) (Bordetella pertussis strain Tohama I), P04977; assay: SPR; value for truncated PTx-S1-220 differs from Table 1; conditions: remark: other sources report otherwise
[2] = target: T2, PTx-S1-220, truncated recombinant S1 …; assay: SPR, mAb 1B7 immobilised ~1000 RU; conditions: remark: other sources report otherwise
PTx-S1-220 T158A = target: T3, PTx-S1-220 T158A (Bordetella pertussis strain Tohama I, UniProt P04977 36-255, T158A); assay: SPR, mAb 1B7 immobilised ~1000 RU
T3 sequence: T1 sequence with A7Y, T157A

PTx-S1-220 R146A = target: T4, PTx-S1-220 R146A (Bordetella pertussis strain Tohama I, UniProt P04977 36-255, R146A); assay: SPR, mAb 1B7 immobilised ~1000 RU
T4 sequence: T1 sequence with A7Y, R145A

PTx-S1A (1-220) = target: T5, PTx-S1A (1-220) (Bordetella pertussis, UniProt P04977 36-255, M194I); assay: SPR
T5 sequence: T1 sequence with A7Y, M193I

PTx-S1D (1-220) = target: T6, PTx-S1D (1-220) (Bordetella pertussis, UniProt P04977 35-254); assay: SPR
T6 chain: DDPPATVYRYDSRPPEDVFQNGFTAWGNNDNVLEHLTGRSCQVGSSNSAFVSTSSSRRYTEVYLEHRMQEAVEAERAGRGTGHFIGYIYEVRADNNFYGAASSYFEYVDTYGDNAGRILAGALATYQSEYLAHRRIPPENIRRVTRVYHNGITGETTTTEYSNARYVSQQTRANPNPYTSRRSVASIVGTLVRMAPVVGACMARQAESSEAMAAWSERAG

B1: monoclonal antibody 1B7 (antibody)
chain: DIQMTQSPALMSASPGEKVTMTCSASSSVSFMYWYQQKPRSSPKPWIYLTSNLPSGVPARFSGSGSGTSYSLTISSMEAEDAATYYCQQWSSHPPTFGSGTKLEIKRGGGGSGGGGSGGGGSGGGGSEVQLQQSGSELVRPGASVKLSCKASGYKFTSYWMHWVKQRPGQGLEWIGNIFPGSGSTNYDEKFNSKATLTVDTSSNTAYMQLSSLTSEDSAVYYCTRWLSGAYFDYWGQGTTLTVSSASGA
notes: also called mAb 1B7; 1B7 mAb
Does B1 bind (PTx-S1-220 Y8A)?
Result: no binding

And the koff [1]?
The koff was 0.0014 s⁻¹.

What about the koff [2] of the same binder?
The koff was 0.0014 s⁻¹.

And the koff (PTx-S1-220 T158A)?
The koff was 0.0013 s⁻¹.

And the koff (PTx-S1-220 R146A)?
The koff was 0.0015 s⁻¹.

What about the “fold decrease in off-rate versus WT PTx-S1-220” value (PTx-S1A (1-220)) of the same binder?
Its value is roughly 2 fold.

What about the “fold decrease in off-rate versus WT PTx-S1-220” value (PTx-S1D (1-220)) of the same binder?
Its value is roughly 2 fold.
